Assay results published in patent US20250304643A1 (BAINAN BIOTECH, published 2025).
*1 amine or outer side, *2 acyl side, *3 side chain or, on linkers, in order; H or OH if unused. Where no end group is shown, it is not given here. Side-chain parts run from the residue outwards. [ ]: non-standard residue; d: D form. The star is where a group is joined. C16 diacid = O=C(O)CCCCCCCCCCCCCCC(=O)*; γGlu = O=C(O)[C@H](CCC(=O)[*:2])N[*:1]; Palmitoyl = CCCCCCCCCCCCCCCC(=O)*; Decanoyl = CCCCCCCCCC(=O)*; Aib = CC(C)(N)C(=O)O

Assays:
[1] = molecular target: T1, human glucose-dependent insulinotropic polypeptide receptor (human, UniProt P48546 22-466); test: cell-based or functional assay
T1 sequence (looked up): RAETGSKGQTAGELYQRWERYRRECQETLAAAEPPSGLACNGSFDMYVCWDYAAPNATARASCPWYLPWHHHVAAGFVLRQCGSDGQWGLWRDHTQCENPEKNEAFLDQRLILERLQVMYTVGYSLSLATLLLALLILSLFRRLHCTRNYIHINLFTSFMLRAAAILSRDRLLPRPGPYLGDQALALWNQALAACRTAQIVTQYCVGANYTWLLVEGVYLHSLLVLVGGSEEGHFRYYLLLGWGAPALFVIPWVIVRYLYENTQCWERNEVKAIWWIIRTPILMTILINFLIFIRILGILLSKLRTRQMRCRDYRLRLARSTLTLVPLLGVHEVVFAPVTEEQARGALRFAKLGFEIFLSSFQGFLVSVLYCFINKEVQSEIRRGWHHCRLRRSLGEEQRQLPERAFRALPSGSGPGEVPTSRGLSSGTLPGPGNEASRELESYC

[2] = molecular target: T2, human glucagon-like peptide-2 receptor (human, UniProt O95838 1-553); test: cell-based or functional assay
T2 sequence (looked up): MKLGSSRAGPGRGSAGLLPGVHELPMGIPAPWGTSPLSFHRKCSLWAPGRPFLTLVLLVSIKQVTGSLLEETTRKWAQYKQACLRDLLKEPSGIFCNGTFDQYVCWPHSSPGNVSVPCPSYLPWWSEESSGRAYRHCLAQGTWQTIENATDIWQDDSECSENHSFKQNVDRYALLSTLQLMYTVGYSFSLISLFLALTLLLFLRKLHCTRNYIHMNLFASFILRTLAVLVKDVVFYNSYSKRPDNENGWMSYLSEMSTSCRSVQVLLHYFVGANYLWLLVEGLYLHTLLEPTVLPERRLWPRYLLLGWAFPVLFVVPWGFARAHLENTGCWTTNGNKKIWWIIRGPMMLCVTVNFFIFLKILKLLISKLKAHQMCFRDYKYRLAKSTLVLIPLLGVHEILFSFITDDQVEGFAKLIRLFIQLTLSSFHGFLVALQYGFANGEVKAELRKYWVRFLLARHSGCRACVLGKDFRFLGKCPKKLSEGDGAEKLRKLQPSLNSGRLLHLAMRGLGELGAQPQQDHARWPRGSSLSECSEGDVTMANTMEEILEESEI

Binder	Efficacy GIPR [1]	Efficacy GLP-2R [2]	logEC50 GLP-2R [2]
H[Aib]DGK([γGlu-Decanoyl])FISDYST[Aib]LDNLAARDFINWLIQTKITK-OH (N-terminus assumed; SMILES CCCCCCCCCC(=O)N[C@@H](CCC(=O)NCCCC[C@H](NC(=O)CNC(=O)[C@H](CC(=O)O)NC(=O)C(C)(C)NC(=O)[C@@H](N)Cc1c[nH]cn1)C(=O)N[C@@H](Cc1ccccc1)C(=O)N[C@H](C(=O)N[C@@H](CO)C(=O)N[C@@H](CC(=O)O)C(=O)N[C@@H](Cc1ccc(O)cc1)C(=O)N[C@@H](CO)C(=O)N[C@H](C(=O)NC(C)(C)C(=O)N[C@@H](CC(C)C)C(=O)N[C@@H](CC(=O)O)C(=O)N[C@@H](CC(N)=O)C(=O)N[C@@H](CC(C)C)C(=O)N[C@@H](C)C(=O)N[C@@H](C)C(=O)N[C@@H](CCCNC(=N)N)C(=O)N[C@@H](CC(=O)O)C(=O)N[C@@H](Cc1ccccc1)C(=O)N[C@H](C(=O)N[C@@H](CC(N)=O)C(=O)N[C@@H](Cc1c[nH]c2ccccc12)C(=O)N[C@@H](CC(C)C)C(=O)N[C@H](C(=O)N[C@@H](CCC(N)=O)C(=O)N[C@H](C(=O)N[C@@H](CCCCN)C(=O)N[C@H](C(=O)N[C@H](C(=O)N[C@@H](CCCCN)C(=O)O)[C@@H](C)O)[C@@H](C)CC)[C@@H](C)O)[C@@H](C)CC)[C@@H](C)CC)[C@@H](C)O)[C@@H](C)CC)C(=O)O) [Compound no. 24]	113%	90%	–
H[Aib]DGK([γGlu-C16 diacid])FISDYST[Aib]LDNLAARDFINWLIQTKITK-OH (N-terminus assumed; SMILES CC[C@H](C)[C@H](NC(=O)[C@H](Cc1ccccc1)NC(=O)[C@H](CCCCNC(=O)CC[C@H](NC(=O)CCCCCCCCCCCCCCC(=O)O)C(=O)O)NC(=O)CNC(=O)[C@H](CC(=O)O)NC(=O)C(C)(C)NC(=O)[C@@H](N)Cc1c[nH]cn1)C(=O)N[C@@H](CO)C(=O)N[C@@H](CC(=O)O)C(=O)N[C@@H](Cc1ccc(O)cc1)C(=O)N[C@@H](CO)C(=O)N[C@H](C(=O)NC(C)(C)C(=O)N[C@@H](CC(C)C)C(=O)N[C@@H](CC(=O)O)C(=O)N[C@@H](CC(N)=O)C(=O)N[C@@H](CC(C)C)C(=O)N[C@@H](C)C(=O)N[C@@H](C)C(=O)N[C@@H](CCCNC(=N)N)C(=O)N[C@@H](CC(=O)O)C(=O)N[C@@H](Cc1ccccc1)C(=O)N[C@H](C(=O)N[C@@H](CC(N)=O)C(=O)N[C@@H](Cc1c[nH]c2ccccc12)C(=O)N[C@@H](CC(C)C)C(=O)N[C@H](C(=O)N[C@@H](CCC(N)=O)C(=O)N[C@H](C(=O)N[C@@H](CCCCN)C(=O)N[C@H](C(=O)N[C@H](C(=O)N[C@@H](CCCCN)C(=O)O)[C@@H](C)O)[C@@H](C)CC)[C@@H](C)O)[C@@H](C)CC)[C@@H](C)CC)[C@@H](C)O) [Compound no. 25]	93%	88%	9
H[Aib]DGK([γGlu-γGlu-Decanoyl])FISDYSTILDNLAARDFINWLIQTKITK-OH (N-terminus assumed; SMILES CCCCCCCCCC(=O)N[C@@H](CCC(=O)N[C@@H](CCC(=O)NCCCC[C@H](NC(=O)CNC(=O)[C@H](CC(=O)O)NC(=O)C(C)(C)NC(=O)[C@@H](N)Cc1c[nH]cn1)C(=O)N[C@@H](Cc1ccccc1)C(=O)N[C@H](C(=O)N[C@@H](CO)C(=O)N[C@@H](CC(=O)O)C(=O)N[C@@H](Cc1ccc(O)cc1)C(=O)N[C@@H](CO)C(=O)N[C@H](C(=O)N[C@H](C(=O)N[C@@H](CC(C)C)C(=O)N[C@@H](CC(=O)O)C(=O)N[C@@H](CC(N)=O)C(=O)N[C@@H](CC(C)C)C(=O)N[C@@H](C)C(=O)N[C@@H](C)C(=O)N[C@@H](CCCNC(=N)N)C(=O)N[C@@H](CC(=O)O)C(=O)N[C@@H](Cc1ccccc1)C(=O)N[C@H](C(=O)N[C@@H](CC(N)=O)C(=O)N[C@@H](Cc1c[nH]c2ccccc12)C(=O)N[C@@H](CC(C)C)C(=O)N[C@H](C(=O)N[C@@H](CCC(N)=O)C(=O)N[C@H](C(=O)N[C@@H](CCCCN)C(=O)N[C@H](C(=O)N[C@H](C(=O)N[C@@H](CCCCN)C(=O)O)[C@@H](C)O)[C@@H](C)CC)[C@@H](C)O)[C@@H](C)CC)[C@@H](C)CC)[C@@H](C)CC)[C@@H](C)O)[C@@H](C)CC)C(=O)O)C(=O)O) [Compound no. 26]	80%	91%	–
H[Aib]EGK([γGlu-Palmitoyl])FISDYST[Aib]LDNLAARDFINWLIQTKITK-OH (N-terminus assumed; SMILES CCCCCCCCCCCCCCCC(=O)N[C@@H](CCC(=O)NCCCC[C@H](NC(=O)CNC(=O)[C@H](CCC(=O)O)NC(=O)C(C)(C)NC(=O)[C@@H](N)Cc1c[nH]cn1)C(=O)N[C@@H](Cc1ccccc1)C(=O)N[C@H](C(=O)N[C@@H](CO)C(=O)N[C@@H](CC(=O)O)C(=O)N[C@@H](Cc1ccc(O)cc1)C(=O)N[C@@H](CO)C(=O)N[C@H](C(=O)NC(C)(C)C(=O)N[C@@H](CC(C)C)C(=O)N[C@@H](CC(=O)O)C(=O)N[C@@H](CC(N)=O)C(=O)N[C@@H](CC(C)C)C(=O)N[C@@H](C)C(=O)N[C@@H](C)C(=O)N[C@@H](CCCNC(=N)N)C(=O)N[C@@H](CC(=O)O)C(=O)N[C@@H](Cc1ccccc1)C(=O)N[C@H](C(=O)N[C@@H](CC(N)=O)C(=O)N[C@@H](Cc1c[nH]c2ccccc12)C(=O)N[C@@H](CC(C)C)C(=O)N[C@H](C(=O)N[C@@H](CCC(N)=O)C(=O)N[C@H](C(=O)N[C@@H](CCCCN)C(=O)N[C@H](C(=O)N[C@H](C(=O)N[C@@H](CCCCN)C(=O)O)[C@@H](C)O)[C@@H](C)CC)[C@@H](C)O)[C@@H](C)CC)[C@@H](C)CC)[C@@H](C)O)[C@@H](C)CC)C(=O)O) [Compound no. 27]	98%	108%	–
H[Aib]DGK([γGlu-γGlu-Palmitoyl])FISDYST[Aib]LDNLAARDFINWLIQTKITK-OH (N-terminus assumed; SMILES CCCCCCCCCCCCCCCC(=O)N[C@@H](CCC(=O)N[C@@H](CCC(=O)NCCCC[C@H](NC(=O)CNC(=O)[C@H](CC(=O)O)NC(=O)C(C)(C)NC(=O)[C@@H](N)Cc1c[nH]cn1)C(=O)N[C@@H](Cc1ccccc1)C(=O)N[C@H](C(=O)N[C@@H](CO)C(=O)N[C@@H](CC(=O)O)C(=O)N[C@@H](Cc1ccc(O)cc1)C(=O)N[C@@H](CO)C(=O)N[C@H](C(=O)NC(C)(C)C(=O)N[C@@H](CC(C)C)C(=O)N[C@@H](CC(=O)O)C(=O)N[C@@H](CC(N)=O)C(=O)N[C@@H](CC(C)C)C(=O)N[C@@H](C)C(=O)N[C@@H](C)C(=O)N[C@@H](CCCNC(=N)N)C(=O)N[C@@H](CC(=O)O)C(=O)N[C@@H](Cc1ccccc1)C(=O)N[C@H](C(=O)N[C@@H](CC(N)=O)C(=O)N[C@@H](Cc1c[nH]c2ccccc12)C(=O)N[C@@H](CC(C)C)C(=O)N[C@H](C(=O)N[C@@H](CCC(N)=O)C(=O)N[C@H](C(=O)N[C@@H](CCCCN)C(=O)N[C@H](C(=O)N[C@H](C(=O)N[C@@H](CCCCN)C(=O)O)[C@@H](C)O)[C@@H](C)CC)[C@@H](C)O)[C@@H](C)CC)[C@@H](C)CC)[C@@H](C)O)[C@@H](C)CC)C(=O)O)C(=O)O) [Compound no. 28]	105%	99%	–
H[Aib]DGTFISDYK([γGlu-Palmitoyl])T[Aib]LDNLAARDFINWLIQTKITK-OH (N-terminus assumed; SMILES CCCCCCCCCCCCCCCC(=O)N[C@@H](CCC(=O)NCCCC[C@H](NC(=O)[C@H](Cc1ccc(O)cc1)NC(=O)[C@H](CC(=O)O)NC(=O)[C@H](CO)NC(=O)[C@@H](NC(=O)[C@H](Cc1ccccc1)NC(=O)[C@@H](NC(=O)CNC(=O)[C@H](CC(=O)O)NC(=O)C(C)(C)NC(=O)[C@@H](N)Cc1c[nH]cn1)[C@@H](C)O)[C@@H](C)CC)C(=O)N[C@H](C(=O)NC(C)(C)C(=O)N[C@@H](CC(C)C)C(=O)N[C@@H](CC(=O)O)C(=O)N[C@@H](CC(N)=O)C(=O)N[C@@H](CC(C)C)C(=O)N[C@@H](C)C(=O)N[C@@H](C)C(=O)N[C@@H](CCCNC(=N)N)C(=O)N[C@@H](CC(=O)O)C(=O)N[C@@H](Cc1ccccc1)C(=O)N[C@H](C(=O)N[C@@H](CC(N)=O)C(=O)N[C@@H](Cc1c[nH]c2ccccc12)C(=O)N[C@@H](CC(C)C)C(=O)N[C@H](C(=O)N[C@@H](CCC(N)=O)C(=O)N[C@H](C(=O)N[C@@H](CCCCN)C(=O)N[C@H](C(=O)N[C@H](C(=O)N[C@@H](CCCCN)C(=O)O)[C@@H](C)O)[C@@H](C)CC)[C@@H](C)O)[C@@H](C)CC)[C@@H](C)CC)[C@@H](C)O)C(=O)O) [Compound no. 29]	104%	124%	–
